Assay results from article PMC8166844, “The FlhA linker mediates flagellar protein export switching during flagellar assembly” (Communications Biology, 2021).
Positions count from the first letter of the chain named. Names and notes keep the numbering of the source.

Tests used:
[1] = molecular target: GST-FliJ (Salmonella enterica), P0A1K1; assay: BLI; GST-FliJ immobilised on an anti-GST sensor tip (BLItz), His-FlhAC or its variants in solution at various concentrations; kinetic buffer PBS pH 7.4, 0.1% BSA, 0.002% Tween-20; 25 °C; wild type fitted with a two-state reaction model, FlhAC-EWD and FlhAC-ΔL with the Hill equation; n = 3; settings: remark: other sources report otherwise
GST-FliJ (Salmonella enterica), P0A1K1, sequence (P0A1K1 whole entry): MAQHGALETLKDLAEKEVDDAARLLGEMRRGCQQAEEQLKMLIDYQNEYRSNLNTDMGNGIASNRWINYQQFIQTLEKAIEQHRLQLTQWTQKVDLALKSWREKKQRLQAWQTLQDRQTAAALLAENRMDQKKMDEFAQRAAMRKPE

[2] = molecular target: T1, GST-FlgN (Salmonella enterica), P0A1J7; assay: BLI; GST-FlgN immobilised on an anti-GST sensor tip (BLItz), His-FlhAC or its variants in solution at various concentrations; kinetic buffer PBS pH 7.4, 0.1% BSA, 0.002% Tween-20; 25 °C; FlhAC-ED and FlhAC-EWD fitted with a two-state reaction model, FlhAC-ΔL with a heterogeneous reaction model; n = 3; settings: remark: other sources report otherwise
T1 chain: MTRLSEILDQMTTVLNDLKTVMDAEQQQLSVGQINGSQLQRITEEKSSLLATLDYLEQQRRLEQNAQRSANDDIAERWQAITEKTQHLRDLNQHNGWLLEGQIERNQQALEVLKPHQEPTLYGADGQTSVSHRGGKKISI

[3] = molecular target: T2, His-FlhAC (C-terminal cytoplasmic domain of FlhA, residues 328–692), wild type (Salmonella enterica, UniProt P40729 328-692); assay: as above; settings: both partners purified
T2 construct: also called wild-type FlhAC; WT
T2 sequence: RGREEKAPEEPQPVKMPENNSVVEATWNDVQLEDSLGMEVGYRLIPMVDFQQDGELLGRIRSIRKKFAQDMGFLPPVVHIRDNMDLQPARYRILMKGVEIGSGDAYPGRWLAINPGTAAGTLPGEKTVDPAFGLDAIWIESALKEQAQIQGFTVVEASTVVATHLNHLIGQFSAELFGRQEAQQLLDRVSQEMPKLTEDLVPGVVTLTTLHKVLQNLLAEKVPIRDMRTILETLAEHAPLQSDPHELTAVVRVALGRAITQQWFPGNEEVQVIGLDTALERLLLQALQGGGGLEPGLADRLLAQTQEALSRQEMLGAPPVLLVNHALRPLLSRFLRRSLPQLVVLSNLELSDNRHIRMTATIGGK

[4] = molecular target: T3, His-FlhAC lacking FlhAL (residues 328–361) (Salmonella enterica, UniProt P40729 362-692); assay: as above; settings: both partners purified
T3 construct: also called FlhAC-ΔL; His-FlhAC-ΔL
T3 sequence: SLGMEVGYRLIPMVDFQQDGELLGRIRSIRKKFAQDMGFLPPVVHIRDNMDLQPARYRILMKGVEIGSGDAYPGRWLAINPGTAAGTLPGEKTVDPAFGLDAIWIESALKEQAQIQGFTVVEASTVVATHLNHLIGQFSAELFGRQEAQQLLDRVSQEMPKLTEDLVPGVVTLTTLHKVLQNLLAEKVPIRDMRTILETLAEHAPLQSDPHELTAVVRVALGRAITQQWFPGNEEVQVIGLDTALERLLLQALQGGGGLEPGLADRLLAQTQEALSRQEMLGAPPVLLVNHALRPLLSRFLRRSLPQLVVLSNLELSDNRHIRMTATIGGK

[5] = molecular target: T4, His-FlhAC(E351A/W354A/D356A) (Salmonella enterica, UniProt P40729 328-692, E351A | W354A | D356A); assay: as above; settings: both partners purified
T4 construct: also called FlhAC-EWD; His-FlhAC-EWD
T4 sequence: T2 sequence with E24A, W27A, D29A

B1: His-FlhAC (C-terminal cytoplasmic domain of FlhA, residues 328–692), wild type, P40729 328-692 (domain or fragment)
chain: T2 sequence
Kd [1]: 1.36 µM

B2: His-FlhAC(E351A/W354A/D356A), P40729 328-692 (domain or fragment)
chain: T2 sequence with E24A, W27A, D29A
Kd [1]: 60.7 µM

B3: His-FlhAC(E351A/D356A), P40729 328-692 (domain or fragment)
chain: T2 sequence with E24A, D29A
Kd [2]: 37.8 µM

B4: His-FlhAC lacking FlhAL (residues 328–361), P40729 362-692 (domain or fragment)
chain: T3 sequence
Kd [1]: 49 µM

B5: GST-FlgN (natural protein)
chain: T1 chain
notes: also called pMMGN101
Kd [3]: 0.095 µM | koff [3]: ~0.000781 s⁻¹ | kon [3]: ~8230 M⁻¹ s⁻¹ | Kd [4]: 3.1 µM | Kd [5]: 31.2 µM
